T1: eIF4G1_(1-249) (S. cerevisiae, UniProt P39935 1-249)
T1 sequence (looked up): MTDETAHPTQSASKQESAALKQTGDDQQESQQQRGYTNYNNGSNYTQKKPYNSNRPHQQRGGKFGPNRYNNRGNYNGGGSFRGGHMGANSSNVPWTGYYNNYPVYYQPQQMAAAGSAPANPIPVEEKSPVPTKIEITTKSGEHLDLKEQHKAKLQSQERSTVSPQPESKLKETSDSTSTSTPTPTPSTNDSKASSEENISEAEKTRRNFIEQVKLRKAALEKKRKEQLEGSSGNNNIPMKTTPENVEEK


Experiments:
eIF4G1_(1-249) = target: T1, eIF4G1_(1-249); experiment: NMR intermolecular paramagnetic relaxation enhancement
SAXS = target: the molecule itself; experiment: SAXS

binding result (eIF4G1_(1-249)) | Binder | stoichiometry N (SAXS)
binds | spin-labeled eIF4G1_(1-249) Q109C (domain or fragment, S. cerevisiae, UniProt P39935 1-249, looked up, 4-(2-iodoacetamido)-TEMPO nitroxyl spin label on C109) MTDETAHPTQSASKQESAALKQTGDDQQESQQQRGYTNYNNGSNYTQKKPYNSNRPHQQRGGKFGPNRYNNRGNYNGGGSFRGGHMGANSSNVPWTGYYNNYPVYYQPCQMAAAGSAPANPIPVEEKSPVPTKIEITTKSGEHLDLKEQHKAKLQSQERSTVSPQPESKLKETSDSTSTSTPTPTPSTNDSKASSEENISEAEKTRRNFIEQVKLRKAALEKKRKEQLEGSSGNNNIPMKTTPENVEEK | 
 | Pab1 RRM12 (domain or fragment) not shown | 2

— paper doi:10.1101/2020.08.07.234443 (bioRxiv, 2020)
